Consider 24 molecules from PMC2193072 (The Journal of Experimental Medicine, 1999).

Like-named read-outs stand apart in the source and are kept apart here. No end group written: not given here.

The target in assay [1] is soluble I-A^g7 (I-Aα–Fos / I-Aβ–Jun heterodimer) (mouse (NOD) | not stated). In words: peptide dissociation assay.
The target is the same in assay [2]. The assay is described as follows: peptide dissociation assay. The source holds these as a separate data set.
Assay [3] has the same target. In words: antibody-capture peptide binding assay with europium-streptavidin.
Assay [4] has the same target. Described as above. This is another data set of the same source.
Assay [5] relates to I-A^g7. The class given is binding, NOD mice. The settings on record: pH 5, competitor 8 nM–25 μM vs biotinylated transferrin peptide (1 μM).
Assay [6] has as its system I-A^g7. The format is binding, NOD mice. The settings on record: biotinylated peptide, pH 5.0, 37°C.

In the case of “Murine transferrin (55–68) peptide, biotinylated”, the dissociation time (t1/2) was 45 h in assay [1] and above 72 h in assay [2].

Regarding Murine CLIP (86–100) peptide, unlabeled, the 50% inhibitory concentration (IC50) is 50 µM in assay [3] and above 125 µM in assay [4].

EEVDMTPADALDDFD [HSV-2 VP16 (430–444)]: the “Binding to I-A^g7 in competition assay (in words)” value in assay [5] is recorded as “competed for binding of the biotinylated transferrin peptide at high peptide concentrations”. Also, the “Binding to I-A^g7 in direct binding assay (in words), pH 5.0” value in assay [6] was “little binding”.

For the molecule “Murine CLIP (86–100) peptide, biotinylated”, the dissociation time (t1/2) in assay [1] worked out at 1 h.

On to “Murine CLIP analogue with V at position 98 (P9), unlabeled (from UniProt P04441 86-100) (peptide)”, for which, in assay [3], the IC50 was 50 µM.

Regarding “Murine serum albumin (560–574) peptide, biotinylated”, the dissociation time (t1/2) in assay [1] and in assay [2] was above 72 h in each case.

B1: Murine CLIP analogue with Q at position 98 (P9), unlabeled (peptide)
peptide: PVSQMRMATPLLQRP
For the molecule B1, the results for the half-maximal inhibitory concentration (IC50) in assay [3] and in assay [4] were 25 µM and above 125 µM, respectively.

B2: Murine CLIP analogue with S at position 98 (P9), unlabeled (peptide)
peptide: PVSQMRMATPLLSRP
B2 returned an IC50 in assay [3] of 40 µM.

B3: Murine CLIP analogue with Y at position 98 (P9), unlabeled (peptide)
peptide: PVSQMRMATPLLYRP
For the molecule B3, the IC50 was above 125 µM in assay [3] and 60 µM in assay [4].

B4: Murine CLIP 98D analogue, biotinylated (peptide)
peptide: PVSQMRMATPLLDRP
modifications: also: biotinylated, position not given here
Regarding B4, the dissociation time (t1/2) in assay [1] was determined as 23 h; in assay [2], 70 h.

B5: Murine CLIP analogue with I at position 98 (P9), unlabeled (peptide)
peptide: PVSQMRMATPLLIRP
With B5, the IC50 in assay [3] and in assay [4] was above 125 µM in each case.

B6: Murine CLIP analogue with G at position 98 (P9), unlabeled (peptide)
peptide: PVSQMRMATPLLGRP
B6: the IC50 in assay [3] was 10 µM; in assay [4], above 125 µM.

B7: Murine CLIP analogue with N at position 98 (P9), unlabeled (peptide)
peptide: PVSQMRMATPLLNRP
Regarding B7, the IC50 in assay [3] came out at 80 µM; in assay [4], 125 µM.

B8: Murine CLIP analogue with A at position 98 (P9), unlabeled (peptide)
peptide: PVSQMRMATPLLARP
With B8, the IC50 was determined as 2 µM in assay [3] and 15 µM in assay [4].

B9: Murine CLIP analogue with R at position 98 (P9), unlabeled (peptide)
peptide: PVSQMRMATPLLRRP
As for B9, the IC50 in assay [3] and in assay [4] was above 125 µM throughout.

B10: Murine CLIP analogue with T at position 98 (P9), unlabeled (peptide)
peptide: PVSQMRMATPLLTRP
Take B10: the figures for the 50% inhibitory concentration (IC50) in assay [3] and in assay [4] were above 125 µM and 40 µM, respectively.

B11: Murine CLIP analogue with C at position 98 (P9), unlabeled (peptide)
peptide: PVSQMRMATPLLCRP
As for B11, in assay [3], the IC50 amounted to 40 µM.

B12: Murine CLIP analogue with F at position 98 (P9), unlabeled (peptide)
peptide: PVSQMRMATPLLFRP
For B12, the IC50 came to 80 µM in assay [3] and 50 µM in assay [4].

B13: Human HSP60 (441–460) peptide, biotinylated (peptide)
peptide: GCALLRCIPALDSLTPANED
modifications: cysteine pairing not given here; also: biotinylated, position not given here
For B13, the dissociation time (t1/2) in assay [1] came to 14 h; in assay [2], 25 h.

B14: Murine CLIP analogue with P at position 98 (P9), unlabeled (peptide)
peptide: PVSQMRMATPLLPRP
For the molecule B14, the IC50 in assay [3] and in assay [4] was above 125 µM in each case.

B15: Murine CLIP analogue with H at position 98 (P9), unlabeled (peptide)
peptide: PVSQMRMATPLLHRP
For the molecule B15, the IC50 in assay [3] is 4 µM; in assay [4], above 125 µM.

B16: Murine CLIP analogue with L at position 98 (P9), unlabeled (peptide)
peptide: PVSQMRMATPLLLRP
As to B16, the IC50 in assay [3] was 40 µM; in assay [4], above 125 µM.

B17: Murine CLIP analogue with K at position 98 (P9), unlabeled (peptide)
peptide: PVSQMRMATPLLKRP
As for B17, the IC50 in assay [3] and in assay [4] was above 125 µM each time.

B18: Murine CLIP analogue with W at position 98 (P9), unlabeled (peptide)
peptide: PVSQMRMATPLLWRP
For B18, the figures for the IC50 in assay [3] and in assay [4] were 80 µM and above 125 µM, respectively.

The term IC50 denotes the concentration needed to halve the response being measured. Read a high IC50 as weaker potency in that assay.
